Holding throughout (experiment): Specificity assay, fraction of remaining proteolytic activity
Assay type in all cases: biochemical

One test concerns the target T1, TF-FVIIa (Homo sapiens, UniProt P08709).
T1 construct: purchased Haematologic Technologies Inc. (Essex Jct., VT) for FVIIa; TF made in house; host or cells: TF1-243: E. coli
Particulars: 100 nM inhibitor; TF 77 nM, FVIIa 14 nM.

The target of the next test is T2, plasmin (Homo sapiens, UniProt P00747).
T2 construct: Human plasmin, S-2302, S-2251, and S-2366 were purchased from Kabi Vitrum (Sweden); purchased Kabi Vitrum (Sweden)
T2 sequence (P00747 97-580 limits assumed): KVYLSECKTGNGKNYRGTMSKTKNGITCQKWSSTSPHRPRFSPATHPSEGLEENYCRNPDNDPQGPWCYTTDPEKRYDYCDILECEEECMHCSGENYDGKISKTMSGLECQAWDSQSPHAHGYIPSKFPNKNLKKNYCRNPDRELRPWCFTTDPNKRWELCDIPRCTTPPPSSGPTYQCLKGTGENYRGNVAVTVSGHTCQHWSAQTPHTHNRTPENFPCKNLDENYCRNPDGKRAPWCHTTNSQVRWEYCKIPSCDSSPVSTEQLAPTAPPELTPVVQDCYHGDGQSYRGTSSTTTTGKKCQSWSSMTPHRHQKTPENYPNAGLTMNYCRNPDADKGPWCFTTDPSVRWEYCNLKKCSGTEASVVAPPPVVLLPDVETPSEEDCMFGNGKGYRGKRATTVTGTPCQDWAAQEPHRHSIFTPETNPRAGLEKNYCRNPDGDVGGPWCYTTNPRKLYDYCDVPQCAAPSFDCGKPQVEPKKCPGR
T2 sequence (P00747 581-810 limits assumed): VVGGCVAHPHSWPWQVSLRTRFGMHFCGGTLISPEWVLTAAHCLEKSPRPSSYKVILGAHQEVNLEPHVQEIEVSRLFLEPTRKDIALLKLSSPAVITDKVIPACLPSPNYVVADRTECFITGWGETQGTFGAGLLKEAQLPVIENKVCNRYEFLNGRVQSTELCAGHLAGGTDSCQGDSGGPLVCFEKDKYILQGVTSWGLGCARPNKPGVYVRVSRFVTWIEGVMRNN
As to conditions: 100 nM inhibitor; 32 nM enzyme.

The target in the next test is T3, activated protein C (Homo sapiens, UniProt P04070).
T3 construct: purchased Haematologic Technologies Inc. (Essex Jct., VT)
T3 sequence (P04070 43-197 limits assumed): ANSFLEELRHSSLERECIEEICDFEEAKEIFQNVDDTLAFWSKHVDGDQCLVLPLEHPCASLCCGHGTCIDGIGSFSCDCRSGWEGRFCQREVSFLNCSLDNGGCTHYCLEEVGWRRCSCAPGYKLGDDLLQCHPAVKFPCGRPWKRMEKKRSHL
T3 sequence (P04070 212-461 limits assumed): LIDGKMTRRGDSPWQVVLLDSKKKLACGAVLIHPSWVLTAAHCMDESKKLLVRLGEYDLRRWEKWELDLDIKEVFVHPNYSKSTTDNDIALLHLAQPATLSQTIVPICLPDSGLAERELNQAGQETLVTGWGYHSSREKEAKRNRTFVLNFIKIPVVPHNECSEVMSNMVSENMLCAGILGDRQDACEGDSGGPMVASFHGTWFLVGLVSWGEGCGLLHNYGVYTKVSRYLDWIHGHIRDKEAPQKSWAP
As to conditions: 100 nM inhibitor; 7.6 nM enzyme.

In a further test the target is T4, thrombin (Homo sapiens, UniProt P00734).
T4 construct: purchased Haematologic Technologies Inc. (Essex Jct., VT)
Particulars: 100 nM inhibitor; 6.2 nM enzyme.

For another test, the target named is T5, Factor XIa (Homo sapiens, UniProt P03951).
T5 construct: purchased Haematologic Technologies Inc. (Essex Jct., VT)
T5 sequence (P03951 19-387 limits assumed): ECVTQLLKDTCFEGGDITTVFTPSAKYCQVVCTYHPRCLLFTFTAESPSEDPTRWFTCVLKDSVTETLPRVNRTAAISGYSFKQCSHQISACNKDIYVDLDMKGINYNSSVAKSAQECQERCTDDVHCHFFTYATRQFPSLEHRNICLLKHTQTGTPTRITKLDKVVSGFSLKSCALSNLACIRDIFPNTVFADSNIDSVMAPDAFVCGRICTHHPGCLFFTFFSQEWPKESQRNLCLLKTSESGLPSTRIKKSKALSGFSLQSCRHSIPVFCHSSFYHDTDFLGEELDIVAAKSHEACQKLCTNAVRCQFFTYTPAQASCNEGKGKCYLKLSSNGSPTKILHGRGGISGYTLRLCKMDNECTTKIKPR
T5 sequence (P03951 388-625 limits assumed): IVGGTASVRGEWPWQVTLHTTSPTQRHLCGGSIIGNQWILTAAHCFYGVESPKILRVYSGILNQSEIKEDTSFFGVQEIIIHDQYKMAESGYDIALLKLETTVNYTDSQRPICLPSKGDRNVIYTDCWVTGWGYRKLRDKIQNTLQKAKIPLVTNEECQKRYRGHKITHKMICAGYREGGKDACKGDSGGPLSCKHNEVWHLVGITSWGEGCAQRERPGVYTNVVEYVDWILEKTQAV
As to conditions: 100 nM inhibitor; […] enzyme.

The next test deals with T6, Factor XIIa (Homo sapiens, UniProt P00748).
T6 construct: purchased Enzyme Research Laboratories, Inc. (South Bend, Ind)
T6 sequence (P00748 20-372 limits assumed): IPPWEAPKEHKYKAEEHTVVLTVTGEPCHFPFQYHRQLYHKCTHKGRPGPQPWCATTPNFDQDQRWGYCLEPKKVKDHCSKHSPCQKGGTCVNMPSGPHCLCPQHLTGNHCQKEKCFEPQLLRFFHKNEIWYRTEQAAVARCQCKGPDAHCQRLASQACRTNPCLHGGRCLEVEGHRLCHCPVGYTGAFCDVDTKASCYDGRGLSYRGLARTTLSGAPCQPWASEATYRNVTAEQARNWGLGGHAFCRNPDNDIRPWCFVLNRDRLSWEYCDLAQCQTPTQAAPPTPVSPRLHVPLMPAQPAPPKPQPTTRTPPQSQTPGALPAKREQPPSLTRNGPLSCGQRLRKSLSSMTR
T6 sequence (P00748 373-615 limits assumed): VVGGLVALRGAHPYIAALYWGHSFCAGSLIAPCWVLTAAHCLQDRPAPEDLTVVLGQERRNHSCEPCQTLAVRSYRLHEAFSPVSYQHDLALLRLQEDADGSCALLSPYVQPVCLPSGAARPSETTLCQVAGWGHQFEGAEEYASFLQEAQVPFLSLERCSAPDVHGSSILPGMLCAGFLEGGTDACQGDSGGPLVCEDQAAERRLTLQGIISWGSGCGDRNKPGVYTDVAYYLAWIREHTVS
As to conditions: 100 nM inhibitor; 14 nM enzyme.

Another test has as its target T7, plasma kallikrein (Homo sapiens, UniProt P03952).
T7 construct: Human plasma kallikrein and Factor XIIa were purchased; purchased Enzyme Research Laboratories, Inc. (South Bend, Ind)
Particulars: 100 nM inhibitor; 3.5 nM enzyme.

The target in the next test is T8, Factor Xa (Homo sapiens, UniProt P00742).
T8 construct: purchased Haematologic Technologies Inc. (Essex Jct., VT)
T8 sequence (P00742 41-179 limits assumed): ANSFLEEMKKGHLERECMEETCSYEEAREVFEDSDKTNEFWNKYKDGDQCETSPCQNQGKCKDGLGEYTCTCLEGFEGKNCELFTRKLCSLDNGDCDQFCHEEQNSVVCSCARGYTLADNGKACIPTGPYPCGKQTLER
T8 sequence (P00742 235-488 limits assumed): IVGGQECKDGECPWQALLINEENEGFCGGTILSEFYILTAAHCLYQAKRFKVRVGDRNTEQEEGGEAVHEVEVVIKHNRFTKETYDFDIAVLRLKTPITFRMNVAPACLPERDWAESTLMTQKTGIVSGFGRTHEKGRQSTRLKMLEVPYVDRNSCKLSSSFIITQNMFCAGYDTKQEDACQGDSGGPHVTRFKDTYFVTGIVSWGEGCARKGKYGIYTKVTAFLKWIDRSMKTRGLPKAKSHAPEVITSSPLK
Particulars: 100 nM inhibitor; 2.5 nM enzyme.

T1 sequence (P08709 61-212 limits assumed): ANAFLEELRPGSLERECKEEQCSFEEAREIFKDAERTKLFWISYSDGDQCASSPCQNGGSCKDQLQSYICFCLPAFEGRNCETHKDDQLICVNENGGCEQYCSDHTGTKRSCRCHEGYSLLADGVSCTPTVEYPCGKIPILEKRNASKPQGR
T1 sequence (P08709 213-466 limits assumed): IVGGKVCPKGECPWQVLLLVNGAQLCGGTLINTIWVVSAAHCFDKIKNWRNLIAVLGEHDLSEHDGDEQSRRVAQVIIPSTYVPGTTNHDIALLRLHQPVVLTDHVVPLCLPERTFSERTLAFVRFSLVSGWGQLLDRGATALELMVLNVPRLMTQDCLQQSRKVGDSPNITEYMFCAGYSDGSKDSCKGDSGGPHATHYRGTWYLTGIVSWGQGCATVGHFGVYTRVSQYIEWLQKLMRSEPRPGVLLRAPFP
T1 sequence (P13726 33-275 partner limits assumed): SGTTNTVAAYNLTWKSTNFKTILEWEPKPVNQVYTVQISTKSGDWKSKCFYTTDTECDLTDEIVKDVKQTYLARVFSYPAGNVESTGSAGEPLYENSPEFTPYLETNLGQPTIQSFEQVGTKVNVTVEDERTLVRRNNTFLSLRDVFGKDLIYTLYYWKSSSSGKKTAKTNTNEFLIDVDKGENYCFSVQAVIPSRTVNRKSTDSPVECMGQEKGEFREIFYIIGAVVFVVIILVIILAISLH
T7 sequence (P03952 20-390 limits assumed): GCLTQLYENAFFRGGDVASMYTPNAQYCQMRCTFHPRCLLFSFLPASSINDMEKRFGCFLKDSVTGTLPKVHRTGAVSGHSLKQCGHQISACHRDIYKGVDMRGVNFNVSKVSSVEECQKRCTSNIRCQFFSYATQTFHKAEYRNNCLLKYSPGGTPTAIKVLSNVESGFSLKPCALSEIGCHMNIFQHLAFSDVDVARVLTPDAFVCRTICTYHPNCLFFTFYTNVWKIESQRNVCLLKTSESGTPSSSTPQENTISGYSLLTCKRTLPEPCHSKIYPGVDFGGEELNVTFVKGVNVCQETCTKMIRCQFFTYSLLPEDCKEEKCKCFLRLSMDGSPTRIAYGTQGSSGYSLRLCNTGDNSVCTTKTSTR
T7 sequence (P03952 391-638 limits assumed): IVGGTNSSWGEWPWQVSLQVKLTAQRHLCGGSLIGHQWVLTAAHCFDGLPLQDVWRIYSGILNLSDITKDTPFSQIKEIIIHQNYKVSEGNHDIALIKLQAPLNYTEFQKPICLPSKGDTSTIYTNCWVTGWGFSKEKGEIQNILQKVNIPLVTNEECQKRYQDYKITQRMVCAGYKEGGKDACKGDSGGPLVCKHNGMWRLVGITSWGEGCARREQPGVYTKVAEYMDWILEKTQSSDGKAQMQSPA
Experimental for Factor XIIa: (§1) Aliquots (30 μL) of various inhibitors diluted to 500 nM were incubated with each protease (100 μL) in the appropriate buffer. After incubation of the substrate/inhibitor mixes at room temperature for 2 h, the appropriate substrate (20 μL) was added, and the absorbance at 405 nm was monitored. Controls lacking inhibitor and enzyme were assayed to measure the uninhibited and substrate hydrolysis rates, respectively. […] The FXIa assay also contained 1 mg/mL BSA. The concentration of FXIa throughout refers to the concentration of active sites. For this experiment, the concentrations of thrombin, TF-FVIIa, FXa, FXIa, FXIIa, and plasmin are 25 approximate and are determined based upon the manufacturers, specifications.
(§2) Serine proteases (1 to 20 nM) were assayed in the presence of 100 nM inhibitor.
Experimental for Factor XIa: as §1, §2
Experimental for Factor Xa: as §1, §2
Experimental for TF-FVIIa: as §1, §2
Experimental for activated protein C: as §1, §2
Experimental for plasma kallikrein: as §1, §2
Experimental for plasmin: as §1, §2
Experimental for thrombin: as §1, §2

Regarding “KALI-8: APPI Kunitz domain mutant, R1 LGHCRAAIPR2 FR3 (SEQ ID NO: 3) (VREVCSEQAELGHCRAAIPRWYFDVTEGKCAPFFYGGCGGNRNNFDTEEYCAAVCGSA)”, the “fraction of remaining proteolytic activity, TF·Factor VIIa” value with TF-FVIIa was determined as 0.94. The “fraction of remaining proteolytic activity, plasmin” value in the test with plasmin turned out to be 0.83. In addition, the “fraction of remaining proteolytic activity, activated protein C” value with activated protein C is on record as 0.89. Further, the “fraction of remaining proteolytic activity, thrombin” value in the test with thrombin amounted to 0.99. Besides, in the test with Factor XIa, the “fraction of remaining proteolytic activity, Factor XIa” value amounted to 0.00. Also, the “fraction of remaining proteolytic activity, Factor XIIa” value in the test with Factor XIIa came out at 1.00. In the test with plasma kallikrein, the “fraction of remaining proteolytic activity, plasma kallikrein” value was found to be 0.00.
On to “KALI-13: APPI Kunitz domain mutant, R1 SGHCRAAIPR2 FR3 (SEQ ID NO: 1) (VREVCSEQAESGHCRAAIPRWYFDVTEGKCAPFFYGGCGGNRNNFDTEEYCAAVCGSA)”, for which, in the test with TF-FVIIa, the “fraction of remaining proteolytic activity, TF·Factor VIIa” value is listed as 0.96. Further, in the test with Factor Xa, the “fraction of remaining proteolytic activity, Factor Xa” value is recorded as 0.97. Besides, the “fraction of remaining proteolytic activity, plasmin” value with plasmin is given as 0.65. Moreover, the “fraction of remaining proteolytic activity, activated protein C” value with activated protein C was 0.90. Further, in the test with thrombin, the “fraction of remaining proteolytic activity, thrombin” value is 0.96. The “fraction of remaining proteolytic activity, Factor XIa” value in the test with Factor XIa was 0.01. Also, the “fraction of remaining proteolytic activity, Factor XIIa” value with Factor XIIa amounted to 1.00. In the test with plasma kallikrein, the “fraction of remaining proteolytic activity, plasma kallikrein” value was 0.00.
“KALI-30: APPI Kunitz domain mutant, R1 EGHCRAAILR2 FR3 (SEQ ID NO: 5) (VREVCSEQAEEGHCRAAILRWYFDVTEGKCAPFFYGGCGGNRNNFDTEEYCAAVCGSA)”: in the test with Factor Xa, the “fraction of remaining proteolytic activity, Factor Xa” value turned out to be 0.68. For the same substance, the “fraction of remaining proteolytic activity, plasmin” value with plasmin was 0.53. Also, the “fraction of remaining proteolytic activity, activated protein C” value in the test with activated protein C came out at 0.81. For the same substance, in the test with thrombin, the “fraction of remaining proteolytic activity, thrombin” value turned out to be 1.00. The “fraction of remaining proteolytic activity, Factor XIa” value with Factor XIa came out at 0.00. Moreover, the “fraction of remaining proteolytic activity, Factor XIIa” value with Factor XIIa is on record as 0.92. Moreover, in the test with plasma kallikrein, the “fraction of remaining proteolytic activity, plasma kallikrein” value was 0.00.
As to “KALI-46: APPI Kunitz domain mutant, R1 EGRCRASILR2 FR3 (SEQ ID NO: 33) (VREVCSEQAEEGRCRASILRWYFDVTEGKCAPFFYGGCGGNRNNFDTEEYCAAVCGSA)”, the “fraction of remaining proteolytic activity, TF·Factor VIIa” value in the test with TF-FVIIa is 0.86. The “fraction of remaining proteolytic activity, plasmin” value with plasmin was 0.64. In the test with activated protein C, the “fraction of remaining proteolytic activity, activated protein C” value was 0.83. In addition, the “fraction of remaining proteolytic activity, thrombin” value with thrombin was determined as 0.99. For the same substance, the “fraction of remaining proteolytic activity, Factor XIa” value in the test with Factor XIa is given as 0.00. Besides, the “fraction of remaining proteolytic activity, Factor XIIa” value with Factor XIIa turned out to be 0.97. Besides, the “fraction of remaining proteolytic activity, plasma kallikrein” value with plasma kallikrein was 0.00.
Consider “KALI-48: APPI Kunitz domain mutant, R1 TGHCRAAIPR2 FR3 (SEQ ID NO: 2) (VREVCSEQAETGHCRAAIPRWYFDVTEGKCAPFFYGGCGGNRNNFDTEEYCAAVCGSA)”, for which the “fraction of remaining proteolytic activity, TF·Factor VIIa” value with TF-FVIIa was 0.95. In addition, in the test with Factor Xa, the “fraction of remaining proteolytic activity, Factor Xa” value was found to be 0.55. Also, the “fraction of remaining proteolytic activity, plasmin” value with plasmin amounted to 0.23. Besides, in the test with activated protein C, the “fraction of remaining proteolytic activity, activated protein C” value is 0.92. For the same substance, the “fraction of remaining proteolytic activity, thrombin” value with thrombin is 0.99. Also, the “fraction of remaining proteolytic activity, Factor XIa” value with Factor XIa is given as 0.01. In addition, the “fraction of remaining proteolytic activity, Factor XIIa” value with Factor XIIa came to 0.99. In addition, the “fraction of remaining proteolytic activity, plasma kallikrein” value with plasma kallikrein was 0.00.
